What all share (experiment): cell_activity
Series [1] deals with AGMT9-C1 ZFP-TF (Artificial). The following applies: control 1.00; napin promoter, transgenic Arabidopsis.
For series [2], the system named is CGMT3-C1 ZFP-TF (Artificial). The conditions noted are these: control 39.9; napin promoter, transgenic canola.
For series [3], the system named is CGMT4-C1 ZFP-TF (Artificial). The conditions noted are these: control 39.9; napin promoter, transgenic canola.
Series [4] deals with CGMT12-C1 ZFP-TF (Artificial). The conditions noted are these: control 39.9; napin promoter, transgenic canola.
For series [5], the system named is AGMT8-C1 ZFP-TF (Artificial). The conditions noted are these: control 1.00; napin promoter; effective activator in leaf, not in seed per p274.
Series [6] deals with CGMT10-C1 ZFP-TF (Artificial). The following applies: control 39.9; napin promoter, transgenic canola.
The test system of series [7] is AGMT6-C1 ZFP-TF (Artificial). The conditions noted are these: control 1.00; napin promoter, transgenic Arabidopsis.
Series [8] relates to AGMT10-C1 ZFP-TF (Artificial). The following applies: control 1.00; napin promoter; effective activator in leaf.
Series [9] has as its system AGMT5-C1 ZFP-TF (Artificial). The following applies: control 1.00; napin promoter, transgenic Arabidopsis.
Series [10] relates to CGMT6-C1 ZFP-TF (Artificial). The conditions noted are these: control 39.9; napin promoter, transgenic canola.
Series [11] relates to AGMT7-C1 ZFP-TF (Artificial). The following applies: control 1.00; napin promoter; 35S promoter 1.69; 5-fold GMT mRNA increase in leaf protoplasts (p271).
The test system of series [12] is CGMT9-C1 ZFP-TF (Artificial). The following applies: control 39.9; napin promoter, transgenic canola.

Among the data in patent US7947873 are activity (% alpha-tocopherol in T2 seed) and activity (% alpha-tocopherol in R1 seed) values, retold here.

For “GAGGAGGATG (double strand) [ZFP D / AGMT9 target]”, the activity (% alpha-tocopherol in T2 seed) in series [1] came out at 2.31.
The sequence “GATGCTGGT (double strand) [CGMT3 target]” yielded an activity (% alpha-tocopherol in R1 seed) in series [2] of 46.6.
Regarding “GAGGAAGAT (double strand) [CGMT4 target]”, the activity (% alpha-tocopherol in R1 seed) in series [3] was 51.9.
In series [4], “GAGGTTGGC (double strand) [CGMT12 target]” showed an activity (% alpha-tocopherol in R1 seed) of 64.5.
With “GAAGAGGGTG (double strand) [ZFP C / AGMT8 target]”, in series [5], the activity (% alpha-tocopherol in T2 seed) amounted to 1.57.
“GTAGAGGAC (double strand) [CGMT10 target]” displayed an activity (% alpha-tocopherol in R1 seed) in [6] of 54.2.
In [7], “TGGGTAGTC (double strand) [AGMT6 target]” gave an activity (% alpha-tocopherol in T2 seed) of 1.74.
For the sequence “GAGGAGGAGG (double strand) [ZFP E / AGMT10 target]”, the activity (% alpha-tocopherol in T2 seed) in [8] was 2.86.
“GAGGAAGGGG (double strand) [ZFP A / AGMT5 target]” yielded an activity (% alpha-tocopherol in T2 seed) in series [9] of 4.45.
“GAGGTTGGA (double strand) [CGMT6 target]” showed an activity (% alpha-tocopherol in R1 seed) in series [10] of 59.6.
With “GGGGAAAGGG (double strand) [ZFP B / AGMT7 target]”, the activity (% alpha-tocopherol in T2 seed) in [11] is 5.95.
Turning to “TAGTTGGAA (double strand) [CGMT9 target]”, in series [12], the activity (% alpha-tocopherol in R1 seed) worked out at 46.2.
